Test results as given in patent publication US12291504B2, “Small molecule inhibition of sulfotransferase SULT1A3” (University of Pittsburgh—Of the Commonwealth System of …, priority 2018, dated 2025).

Tested on: Oc1ccc2ccc3cccc4ccc1c2c34
Experiment: purified protein, by the assay type
Conditions: saturating PAPS (500 μM), 25.0 °C
Description: Covalent Tagging of SULT1A3 Cys Constructs. Labeling of the SULT1A3 Cys constructs was performed as described previously (17,18,21). Briefly, 3-maleimido-PROXYL (spin label) or N-cyclohexylmaleimide (diamagnetic control) was added to an enzyme containing solution at 20-fold excess over reactive Cys. Unreacted Cys was monitored using DNTB (17,18,21); reactions were considered complete when >98% of the Cys was labeled. Reaction conditions: SULT1A3 (50 μM, monomer), 3-maleimido-PROXYL or N-cyclohexylmaleimide (1.0 mM), PAP (0.50 mM), KPO4 (50 mM), pH 7.5, 4±2° C. To prepare samples for NMR, reaction mixtures were dialyzed three times against 40 volumes of PAP (0.50 mM), KPO4 (50 mM), pD 7.4, D2O (>95%), 4±2° C.
Initial-Rate Studies. Initial-rate parameters for the labeled or mutant SULT1A3 constructs were determined using a previously described 1-HP assay (25). […] Reactions were monitored via fluorescence change associated with the conversion of 1-HP to 1-HP-S (λex=325 nm, λem=370 nm). Keq for the 1-HP sulfonation reaction is −250. Given the reaction conditions outlined above, ≥99% of 1-HP is converted to 1-HP-S, and ˜0.4% of PAPS is converted to PAP at equilibrium. […] Reaction progress curves were analyzed to obtain initial-rate parameters as described previously (26,27).
Inhibition studies. Inhibition parameters were determined under conditions identical to those described above (see, Initial-Rate Studies) except that [1-HP] was increased to 5.0 μM (˜61×Km) and inhibitor concentration was varied between 0.20-20×Ki. Ki was obtained using a least-squares fit to the following partial inhibition equation (25,28): v=kcat·(Ki+(1/kcat inh)·[I])/(Ki+[I]), where kcat inh is enzyme turnover at saturating substrates and allosteric inhibitor.

Question: Which results are given for “SULT1A3 spin-labeled at Cys 116 (Homo sapiens; Q116C)”?
Answer: Km (other: spin label at Cys 116): 87 (3) nM; kcat (other: spin label at Cys 116): 1.83 s⁻¹

Question: “SULT1A3 spin-labeled at Cys 198 (Homo sapiens; E198C)” was tested. Which Km (other: spin label at Cys 198) did it give?
Answer: Its Km is 88 (2) nM.

Question: What about the kcat (other: spin label at Cys 198) of the same substance?
Answer: Its kcat is 1.8 s⁻¹.

Question: “SULT1A3 spin-labeled at Cys 234 (Homo sapiens; K234C)” was tested. Which Km (other: spin label at Cys 234) did it give?
Answer: Its Km is 84 (3) nM.

Question: What about the kcat (other: spin label at Cys 234) of the same substance?
Answer: Its kcat is 1.82 s⁻¹.
